Reference: patent US20210030857A1 (NGM BIOPHARMACEUTICALS, published 2021)

Molecular target: T1, mouse beta klotho expressed on cells (mouse (Mus musculus), UniProt Q99N32 1-1043)
T1 construct: also called Mouse KLB
T1 sequence: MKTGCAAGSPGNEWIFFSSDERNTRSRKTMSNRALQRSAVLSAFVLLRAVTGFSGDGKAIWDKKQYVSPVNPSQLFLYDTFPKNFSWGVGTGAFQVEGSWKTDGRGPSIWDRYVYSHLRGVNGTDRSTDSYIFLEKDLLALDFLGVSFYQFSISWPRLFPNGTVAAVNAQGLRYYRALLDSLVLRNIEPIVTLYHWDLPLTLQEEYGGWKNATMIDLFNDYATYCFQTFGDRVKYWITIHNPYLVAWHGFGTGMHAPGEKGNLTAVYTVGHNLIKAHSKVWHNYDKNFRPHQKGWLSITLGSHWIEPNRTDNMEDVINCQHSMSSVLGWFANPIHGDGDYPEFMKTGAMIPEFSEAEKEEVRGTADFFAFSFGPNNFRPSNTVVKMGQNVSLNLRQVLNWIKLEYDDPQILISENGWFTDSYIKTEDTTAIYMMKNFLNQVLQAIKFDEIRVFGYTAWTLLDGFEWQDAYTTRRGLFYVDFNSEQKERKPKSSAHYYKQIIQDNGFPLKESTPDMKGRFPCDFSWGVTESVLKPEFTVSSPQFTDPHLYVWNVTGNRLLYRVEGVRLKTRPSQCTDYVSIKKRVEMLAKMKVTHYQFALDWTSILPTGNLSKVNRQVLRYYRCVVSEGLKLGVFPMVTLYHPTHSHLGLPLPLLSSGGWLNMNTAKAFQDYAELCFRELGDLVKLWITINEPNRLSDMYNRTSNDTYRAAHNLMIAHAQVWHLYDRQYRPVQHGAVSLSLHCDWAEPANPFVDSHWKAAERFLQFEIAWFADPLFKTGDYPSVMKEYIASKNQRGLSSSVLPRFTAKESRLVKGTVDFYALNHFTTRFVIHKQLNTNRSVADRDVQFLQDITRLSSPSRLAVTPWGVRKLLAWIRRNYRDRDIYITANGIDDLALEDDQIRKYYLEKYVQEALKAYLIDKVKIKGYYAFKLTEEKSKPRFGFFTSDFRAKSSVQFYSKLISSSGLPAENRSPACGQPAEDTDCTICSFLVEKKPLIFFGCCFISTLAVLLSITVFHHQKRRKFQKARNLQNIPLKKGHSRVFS
Assay: FACS on transfected Expi293 cells
Protocol: Studies were performed in order to localize the binding site on human KLB of anti-beta klotho antibodies in the 5H23 epitope bin, including 5H23 as described in Example 3, with sequences shown in Tables 1-10 and FIGS. 1-3, and human anti-beta klotho antibodies in the 5H23 epitope bin, such as humanized 5H23 antibodies (e.g., VH SEQ ID NO: 271 and VL SEQ ID NO: 276). For example, FACS-based binding assays for domain mapping were performed on Expi293 cells (Life Technologies, A14635) that were transiently transfected with plasmids encoding variants of KLB: human, mouse, cynomolgus, a chimeric version in which the KL1 domain sequence of mouse KLB (M1-F506) replaces the KL1 domain of human KLB (M1-F508) to create mouse-human KLB (SEQ ID NO: 376), and a second chimera in which the human KL1 sequence (M1-F508) replaces the KL1 domain of mouse KLB (M1-F506) to create human-mouse KLB (SEQ ID NO: 374). Additionally, the expression vector pYD7 harboring no KLB sequence was transfected as a negative control.
In some studies, binding of a purified sample of a humanized 5H23 antibody (e.g., VH SEQ ID NO: 271 and VL SEQ ID NO: 276) to KLB variants was determined by FACS analysis. […] After washing with PBS/1% BSA/0.1% azide, transfected cells were then co-incubated with labeled anti-human Fc (Jackson lmmunoresearch) for 30 minutes at 4° C. After washing with PBS/1% BSA/0.1% azide, cells were acquired on flow cytometer (FACS Calibur) and analyzed by cytometric software (FlowJo). To display the resulting data, graphs plotting the number of cells as a function of fluorescence intensity were generated, and the median fluorescence intensity (MFI) was determined for each sample as shown in Table 30.

binding result: no binding (tested: 1 µg/ml)
B1: humanized 5H23 antibody (VH SEQ ID NO: 271 and VL SEQ ID NO: 276) (antibody, V domains shown)
VH: QVQLQQSGAEVKKPGASVKVSCKASGYTFTSYDINWVRQAPGQGLEWIGWIYPGDGSTKYNEKFKGKATITRDTSASTAYMELSSLRSEDTAVYFCARSDYYGSRSFAYWGQGTLVTVSS
VL: DIVMTQSPDSLAVSLGERATINCRASKSVSTSGYVYMHWYQQKPGQPPKLLIYLASYLESGVPDRFSGSGSGTDFTLTISSVQAEDVAVYYCQHSRDLTFPFGGGTKLEIK
notes: also called h5H23; h5H23 (Prep 1)
